Measured values taken from patent US11912789 (INTERK PEPTIDE THERAPEUTICS, dated 2024).
Read-outs that look alike come from different tables or passages of the source. No end group written: not given here. 2Adod = 2-amino-dodecanoic acid; 2Adec = 2-amino-decanoic acid; 12Ado = NCCCCCCCCCCCC(=O)O

How the values were obtained:
Experiment in all cases: cell-based or functional assay
[1] = target: T1, Lymphocyte-specific protein tyrosine kinase (Lck), enzyme in cell-free kinase assay (human, UniProt P06239 1-509, limits assumed)
[2] = target: T1, Lymphocyte-specific protein tyrosine …; remark: listed apart in the source
Yes = Yes (UniProt P07947 1-543, limits assumed)
Hck = Hck (UniProt P08631 251-518, limits assumed)
cSRC = cSRC (UniProt P12931 1-536, limits assumed)
[3] = target: T1, Lymphocyte-specific protein tyrosine …; remark: listed apart in the source
Fyn = Fyn (UniProt P06241 1-537, limits assumed)
Blk = Blk (UniProt P51451 1-505, limits assumed)
Lyn = Lyn (UniProt P07948 1-512, limits assumed)
Fgr = Fgr (UniProt P09769 1-529, limits assumed)
[4] = target: T1, Lymphocyte-specific protein tyrosine …; remark: listed apart in the source

T1 sequence (P06239 whole entry): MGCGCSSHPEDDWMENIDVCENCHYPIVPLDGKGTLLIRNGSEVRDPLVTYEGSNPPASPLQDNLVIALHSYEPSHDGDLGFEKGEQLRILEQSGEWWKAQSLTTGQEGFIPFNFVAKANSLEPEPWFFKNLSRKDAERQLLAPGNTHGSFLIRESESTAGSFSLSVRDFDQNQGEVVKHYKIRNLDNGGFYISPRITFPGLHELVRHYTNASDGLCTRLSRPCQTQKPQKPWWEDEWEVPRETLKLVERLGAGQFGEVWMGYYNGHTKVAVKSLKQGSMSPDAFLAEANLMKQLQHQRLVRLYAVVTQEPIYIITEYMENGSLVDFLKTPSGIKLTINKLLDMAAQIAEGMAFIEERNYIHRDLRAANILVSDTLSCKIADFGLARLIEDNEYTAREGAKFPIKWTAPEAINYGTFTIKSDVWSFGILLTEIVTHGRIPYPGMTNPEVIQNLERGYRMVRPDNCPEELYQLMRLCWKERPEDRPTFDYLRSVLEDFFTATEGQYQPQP
Fyn, sequence (P06241 whole entry): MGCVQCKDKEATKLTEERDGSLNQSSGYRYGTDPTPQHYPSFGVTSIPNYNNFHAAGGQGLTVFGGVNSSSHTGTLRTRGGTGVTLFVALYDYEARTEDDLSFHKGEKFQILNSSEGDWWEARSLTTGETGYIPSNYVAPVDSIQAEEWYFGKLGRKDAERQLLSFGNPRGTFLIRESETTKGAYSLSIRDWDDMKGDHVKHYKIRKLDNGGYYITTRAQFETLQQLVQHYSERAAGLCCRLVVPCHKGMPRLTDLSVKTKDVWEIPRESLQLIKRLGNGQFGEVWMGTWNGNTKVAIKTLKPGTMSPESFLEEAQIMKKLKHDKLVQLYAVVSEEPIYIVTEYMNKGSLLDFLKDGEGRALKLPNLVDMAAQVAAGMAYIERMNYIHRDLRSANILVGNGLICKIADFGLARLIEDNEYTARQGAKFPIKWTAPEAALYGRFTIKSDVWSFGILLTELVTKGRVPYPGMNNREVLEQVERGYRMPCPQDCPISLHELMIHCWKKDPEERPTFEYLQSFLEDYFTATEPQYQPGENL
Yes, sequence (P07947 whole entry): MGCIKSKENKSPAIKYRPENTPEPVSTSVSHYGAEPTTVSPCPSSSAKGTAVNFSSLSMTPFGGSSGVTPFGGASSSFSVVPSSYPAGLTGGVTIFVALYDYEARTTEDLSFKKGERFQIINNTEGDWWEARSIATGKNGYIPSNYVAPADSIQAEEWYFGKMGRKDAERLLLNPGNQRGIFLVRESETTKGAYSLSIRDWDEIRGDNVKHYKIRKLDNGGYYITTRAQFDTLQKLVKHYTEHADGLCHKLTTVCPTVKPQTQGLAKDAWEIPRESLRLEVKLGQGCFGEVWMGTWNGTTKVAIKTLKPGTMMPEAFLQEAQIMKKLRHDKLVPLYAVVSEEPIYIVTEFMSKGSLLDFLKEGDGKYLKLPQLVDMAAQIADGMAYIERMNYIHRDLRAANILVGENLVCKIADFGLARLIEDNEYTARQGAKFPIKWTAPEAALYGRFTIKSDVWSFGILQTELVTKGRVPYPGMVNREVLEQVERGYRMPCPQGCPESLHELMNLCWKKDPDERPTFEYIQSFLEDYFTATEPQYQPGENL
Lyn, sequence (P07948 whole entry): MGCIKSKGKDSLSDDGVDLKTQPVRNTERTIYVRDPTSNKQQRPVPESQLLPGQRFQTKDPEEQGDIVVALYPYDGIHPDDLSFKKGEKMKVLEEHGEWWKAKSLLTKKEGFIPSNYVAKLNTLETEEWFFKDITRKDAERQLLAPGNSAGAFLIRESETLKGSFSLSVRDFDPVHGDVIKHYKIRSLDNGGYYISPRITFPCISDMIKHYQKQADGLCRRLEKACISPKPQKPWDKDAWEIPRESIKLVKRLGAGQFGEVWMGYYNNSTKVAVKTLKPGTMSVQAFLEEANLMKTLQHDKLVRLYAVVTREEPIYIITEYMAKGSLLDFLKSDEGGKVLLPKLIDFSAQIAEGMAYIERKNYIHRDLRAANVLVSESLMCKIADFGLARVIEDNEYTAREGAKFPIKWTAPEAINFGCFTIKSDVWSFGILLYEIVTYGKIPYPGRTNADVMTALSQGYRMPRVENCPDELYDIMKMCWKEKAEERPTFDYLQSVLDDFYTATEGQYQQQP
Blk, sequence (P51451 whole entry): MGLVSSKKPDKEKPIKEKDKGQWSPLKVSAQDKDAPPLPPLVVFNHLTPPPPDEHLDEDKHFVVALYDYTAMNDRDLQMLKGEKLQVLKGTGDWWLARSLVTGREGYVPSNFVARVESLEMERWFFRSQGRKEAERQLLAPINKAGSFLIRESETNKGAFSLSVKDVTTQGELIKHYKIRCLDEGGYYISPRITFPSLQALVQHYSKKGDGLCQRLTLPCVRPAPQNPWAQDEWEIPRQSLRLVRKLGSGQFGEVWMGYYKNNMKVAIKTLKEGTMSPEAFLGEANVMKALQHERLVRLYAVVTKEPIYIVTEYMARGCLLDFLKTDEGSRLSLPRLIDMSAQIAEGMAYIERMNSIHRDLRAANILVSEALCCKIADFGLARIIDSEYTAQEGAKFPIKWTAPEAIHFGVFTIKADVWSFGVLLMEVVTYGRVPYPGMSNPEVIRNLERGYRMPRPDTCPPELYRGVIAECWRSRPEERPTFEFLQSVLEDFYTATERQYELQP
Hck, sequence (P08631 251-518 limits assumed): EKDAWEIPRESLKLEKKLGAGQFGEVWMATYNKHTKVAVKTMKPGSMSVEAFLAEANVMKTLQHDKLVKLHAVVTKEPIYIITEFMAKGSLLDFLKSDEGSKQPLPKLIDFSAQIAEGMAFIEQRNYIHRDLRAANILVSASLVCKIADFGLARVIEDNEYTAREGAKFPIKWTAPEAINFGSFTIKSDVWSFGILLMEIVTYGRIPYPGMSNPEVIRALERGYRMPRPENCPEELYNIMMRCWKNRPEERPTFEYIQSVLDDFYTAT

| Binder | Lck Activation above control, 1 µM [2] [%] | Lck Activation above control, 10 µM [2] [%] | Lck Activation above control, 30 µM [2] [%] | further results |
| --- | --- | --- | --- | --- |
| RSKAKNPLYR-{12Ado-12Ado-12Ado-12Ado-NH2} [RSKAKNPLYR-(12-Adod)4-NH2] | – | – | – | Lck Activation above control, 1 µM [1]: 96% |
| DSEAENPLYD-{2Adod-2Adod-2Adod-2Adod-NH2} [DSEAENPLYD-(2Adod)4-NH2] | – | – | – | Lck Activation above control, 1 µM [1]: 0% |
| RSKAKNPLY | 0 | 186 | 407 | Yes activity relative to control, peptide at 10 µM (Yes): 0%; Hck activity relative to control, peptide at 10 µM (Hck): 0%; cSRC activity relative to control, peptide at 10 µM (cSRC): 0%; Lck activity relative to control, peptide at 10 µM [3]: 186%; Fyn activity relative to control, peptide at 10 µM (Fyn): 0%; Blk activity relative to control, peptide at 10 µM (Blk): 0%; Lyn activity relative to control, peptide at 10 µM (Lyn): 0%; Fgr activity relative to control, peptide at 10 µM (Fgr): 0% |
| RVKVKVVVV | 518 | 501 | 363 | – |
| RYLPNKAKS | 0 | 0 | 5 | – |
| RVKVKVVVVR | 13 | 183 | – | – |
| RSRARNPLY | 0 | 0 | 0 | – |
| RSAAKNPLY | 0 | 0 | 0 | – |
| ASKAKNPLY | 0 | 0 | 0 | – |
| SKAKNPLYR | 0 | 0 | 0 | – |
| RSKAKNPLYR-{2Adec-2Adec-2Adec-2Adec-NH2} [RSKAKNPLYR-(2-Adec)4-NH2] | – | – | – | Lck Activation above control, 1 µM [1]: 127% |
| RSKAKNPLYR-{2Adod-2Adod-2Adod-2Adod-OH} [RSKAKNPLYR-(2Adod)4-OH] | – | – | – | level of Lck activation relative to the amidated compound …-(2Adod)4-NH2 [4]: ~50% |
| RSKAANPLY | 0 | 0 | 0 | – |
| RSKAKNPLYR-{2Adod-2Adod-2Adod-2Adod-NH2} [RSKAKNPLYR-(2Adod)4-NH2] | – | – | – | Lck Activation above control, 1 µM [1]: 499% |
| KEKLKNPLF | 0 | 0 | 14 | – |
| RSKAKNPLYR | 0 | 0 | 0 | Yes activity relative to control, peptide at 10 µM (Yes): 0%; Hck activity relative to control, peptide at 10 µM (Hck): 0%; cSRC activity relative to control, peptide at 10 µM (cSRC): 0%; Lck activity relative to control, peptide at 10 µM [3]: 0%; Fyn activity relative to control, peptide at 10 µM (Fyn): 0%; Blk activity relative to control, peptide at 10 µM (Blk): 0%; Lyn activity relative to control, peptide at 10 µM (Lyn): 0%; Fgr activity relative to control, peptide at 10 µM (Fgr): 0% |
